Patent US20070274915

Test system: AU-tagged PLC-γ1
Sequence (P19174 2-1290): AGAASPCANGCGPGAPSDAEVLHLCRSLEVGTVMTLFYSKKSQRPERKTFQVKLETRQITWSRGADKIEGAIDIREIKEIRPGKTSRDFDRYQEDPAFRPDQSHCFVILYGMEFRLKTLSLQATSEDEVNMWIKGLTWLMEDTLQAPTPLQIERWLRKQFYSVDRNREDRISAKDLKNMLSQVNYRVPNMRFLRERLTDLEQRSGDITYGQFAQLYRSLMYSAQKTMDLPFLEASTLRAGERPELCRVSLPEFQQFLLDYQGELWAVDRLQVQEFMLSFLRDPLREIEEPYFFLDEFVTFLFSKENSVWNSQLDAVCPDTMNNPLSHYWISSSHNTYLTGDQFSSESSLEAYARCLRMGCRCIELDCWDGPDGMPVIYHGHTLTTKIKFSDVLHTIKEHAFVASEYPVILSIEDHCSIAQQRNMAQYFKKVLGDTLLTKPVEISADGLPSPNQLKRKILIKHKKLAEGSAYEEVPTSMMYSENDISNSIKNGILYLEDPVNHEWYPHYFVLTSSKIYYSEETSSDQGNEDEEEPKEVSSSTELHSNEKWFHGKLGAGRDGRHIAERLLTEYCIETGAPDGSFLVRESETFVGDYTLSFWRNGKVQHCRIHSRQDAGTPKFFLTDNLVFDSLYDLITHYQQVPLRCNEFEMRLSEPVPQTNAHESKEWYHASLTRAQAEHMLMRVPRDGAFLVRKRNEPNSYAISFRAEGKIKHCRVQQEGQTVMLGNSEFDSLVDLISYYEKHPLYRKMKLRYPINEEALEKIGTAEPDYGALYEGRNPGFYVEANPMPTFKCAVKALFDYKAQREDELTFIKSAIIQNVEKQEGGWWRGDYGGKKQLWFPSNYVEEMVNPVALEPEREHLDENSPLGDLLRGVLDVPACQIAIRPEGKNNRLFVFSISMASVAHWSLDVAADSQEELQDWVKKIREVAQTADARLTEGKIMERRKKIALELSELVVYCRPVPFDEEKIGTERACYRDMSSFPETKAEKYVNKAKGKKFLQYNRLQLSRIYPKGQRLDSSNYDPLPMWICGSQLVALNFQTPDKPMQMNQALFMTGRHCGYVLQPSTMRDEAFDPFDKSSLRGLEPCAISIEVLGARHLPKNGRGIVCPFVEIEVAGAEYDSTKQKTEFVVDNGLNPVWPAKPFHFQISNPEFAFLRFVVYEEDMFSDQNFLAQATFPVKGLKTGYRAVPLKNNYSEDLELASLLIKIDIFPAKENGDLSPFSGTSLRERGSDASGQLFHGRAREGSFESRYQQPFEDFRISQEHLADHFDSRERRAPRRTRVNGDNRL

myc-tagged Itch, sequence (chain, as listed by the source): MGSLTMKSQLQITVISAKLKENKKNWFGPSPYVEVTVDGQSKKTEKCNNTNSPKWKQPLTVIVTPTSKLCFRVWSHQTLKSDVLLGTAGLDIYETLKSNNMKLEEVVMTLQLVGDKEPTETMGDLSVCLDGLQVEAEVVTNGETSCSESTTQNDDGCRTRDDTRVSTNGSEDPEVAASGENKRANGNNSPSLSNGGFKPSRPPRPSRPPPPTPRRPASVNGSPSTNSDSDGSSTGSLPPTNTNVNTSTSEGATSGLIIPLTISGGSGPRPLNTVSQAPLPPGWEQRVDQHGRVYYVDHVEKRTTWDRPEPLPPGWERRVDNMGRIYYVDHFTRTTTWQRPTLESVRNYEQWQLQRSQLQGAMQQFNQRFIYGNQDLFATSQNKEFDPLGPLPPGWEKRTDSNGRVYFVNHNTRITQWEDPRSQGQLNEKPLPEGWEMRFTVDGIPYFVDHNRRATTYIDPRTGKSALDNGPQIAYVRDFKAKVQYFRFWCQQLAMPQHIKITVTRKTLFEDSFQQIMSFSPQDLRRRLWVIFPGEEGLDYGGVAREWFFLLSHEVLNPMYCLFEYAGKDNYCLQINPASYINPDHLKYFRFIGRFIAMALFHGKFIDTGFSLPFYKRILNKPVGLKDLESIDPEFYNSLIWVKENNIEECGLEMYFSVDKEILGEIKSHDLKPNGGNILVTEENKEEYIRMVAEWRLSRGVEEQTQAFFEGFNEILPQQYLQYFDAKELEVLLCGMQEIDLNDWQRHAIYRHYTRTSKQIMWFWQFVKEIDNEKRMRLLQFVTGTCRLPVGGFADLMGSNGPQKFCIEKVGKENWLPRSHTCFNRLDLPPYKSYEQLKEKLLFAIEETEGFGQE

myc-tagged Itch
ionomycin-dependent degradation of PLC-γ1 (HEK 293 transfection, immunoblot): Itch and Nedd4 both facilitated the ionomycin-dependent degradation of PLC-γ1
